Substitutions are numbered along the chain they refer to.
B1: Selenomethionine-labeled TelA (enzyme, Agrobacterium tumefaciens C58, UniProt Q7CWV1 1-442, looked up)
chain: MLAAKRKTKTPVLVERIDQFVGQIKEAMKSDDASRNRKIRDLWDAEVRYHFDNGRTEKTLELYIMKYRNALKAEFGPKSTPLAICNMKKLRERLNTYIARGDYPKTGVATSIVEKIERAEFNTAGRKPTVLLRIADFIAAMNGMDAKQDMQALWDAEIAIMNGRAQTTIISYITKYRNAIREAFGDDHPMLKIATGDAAMYDEARRVKMEKIANKHGALITFENYRQVLKICEDCLKSSDPLMIGIGLIGMTGRRPYEVFTQAEFSPAPYGKGVSKWSILFNGQAKTKQGEGTKFGITYEIPVLTRSETVLAAYKRLRESGQGKLWHGMSIDDFSSETRLLLRDTVFNLFEDVWPKEELPKPYGLRHLYAEVAYHNFAPPHVTKNSYFAAILGHNNNDLETSLSYMTYTLPEDRDNALARLKRTNERTLQQMATIAPVSRKG
modifications: selenomethionine-labeled (eleven selenium sites per TelA monomer located)
notes: Protelomerase TelA, Agrobacterium tumefaciens C58, gene locus Atu_2523, full-length 442 residues; model covers residues 102-421; Phosphotyrosine complex trapped with the nicked suicide substrate DNAc; used for SAD phasing; also called SeMet-TelA; source: E. coli methionine auxotroph strain B834(DE3), selenomethionine-labeled; not shown: His-tag (20 residues), N-terminal, kept
B2: TelA, protelomerase from Agrobacterium tumefaciens C58, wild type (enzyme, UniProt Q7CWV1 1-442, looked up)
chain: B1 chain
notes: Protelomerase TelA, Agrobacterium tumefaciens C58, gene locus Atu_2523, full-length 442 residues; residues 102-421 ordered in the crystal models; In 4E0P and 4E0Y Tyr405 is joined to the cleaved DNA by a phosphotyrosine bond; in 4E0G orthovanadate bridges Tyr405 and the DNA ends; also called telomere resolvase; wild-type TelA; source: E. coli BL21, pBAD promoter, purified (Ni-NTA, …)
B3: TelA R255A (enzyme)
chain: B1 chain with R255A
notes: source: E. coli BL21, pBAD promoter, purified (Ni-NTA, Heparin-Sepharose)
B4: TelA Y201A (enzyme)
chain: B1 chain with Y201A
notes: Crystallised with DNAb; source: E. coli BL21, pBAD promoter, purified (Ni-NTA, Heparin-Sepharose)
B5: TelA R205A (enzyme)
chain: B1 chain with R205A
notes: Crystallised with DNAb6; source: E. coli BL21, pBAD promoter, purified (Ni-NTA, Heparin-Sepharose)

Target: the molecule itself
Test: crystal structure; TelA-DNA complexes (equal moles of protein monomer and DNA half-site), hanging drop vapor diffusion at 20°C, 5% PEG 4000, 10 mM Tris-HCl pH 7.4, 300 mM NaCl; one TelA per asymmetric unit, the dimer is generated by the crystallographic dyad; TelA is bound to DNA

| Protein | stoichiometry N |
| --- | --- |
| B1 | 2 |
| B2 | 2 |
| B3 | 2 |
| B4 | 2 |
| B5 | 2 |
